Experimental findings from patent US8609370 are described below.

Test [1] has as its target Leukine (commercial rhGM-CSF of Schering AG, expressed in yeast) (human) (UniProt P04141). The test is described as follows: cell-based or functional assay.
Test [2] deals with rhGM-CSF expressed in NM-F9 cells cultured with 90 mM ManNAc (optimal sialylation form of rhGM-CSF) (human) (UniProt P04141). The test is described as follows: cell-based or functional assay.

For anti-human GM-CSF antibody BVD2-23 B6, the stimulation of TF-1 cell proliferation (BrdU-proliferation assay), blocking at 5 µg/ml antibody in test [1] and in test [2] was 60% in each case.
